From patent US7981997B2, “Growth factor which acts through ErbB-4 RTK” (Yeda Research And Development Co., priority 2000, dated 2011)

Columns and labels:
Type in all cases: cell-based
[1] = test system: D4 cells (32D expressing ErbB-4); assay: Long-term cell survival assay in the absence of IL-3 (MTT); conditions: ligand 100 ng/ml, MTT daily
Procedure: (§1) FIG. 3b show survival effect of NRG-4 on ErbB-expressing derivatives of 32D cells. The indicated derivatives of 32D cells were incubated for various time intervals in the absence of IL-3. […] For control, cells were incubated with medium conditioned by IL-3-producing cells (open triangles), or with no factor (open circles). The extent of cell proliferation was determined daily by using the calorimetric MTT assay. The data presented are the mean±S.D. of 4 determinations. Note that co-expression of ErbB-1 and ErbB-2 (D12 cells) enabled cell survival in the absence of IL-3. The experiment was repeated twice with similar results.
(§2) The establishment of a series of interleukin 3 (IL-3)-dependent 32D myeloid cells expressing all combinations of ErbB proteins has been described (Alimandi et al., 1997; Pinkas-Kramarski et al., 1996; Shelly et al., 1998). Cells were maintained in RPMI medium with 10% fetal bovine serum (FBS) and dilute IL3-containing conditioned medium. […] Cell survival was determined 24 hours later, or after the indicated time intervals, by MTT assay, as previously described (Mosman, 1983). MTT (0.05 mg/ml) was incubated with the analyzed cells for 2 hours at 37 C. Living cells can transform the tetrazolium ring into dark blue formazan crystals, that can be quantified by reading the optical density at 540-630 nm after lysis of the cells with acidic isopropanol. […]

[2] = test system: D24 cells (32D co-expressing ErbB-4 and ErbB-2); assay: as above; conditions: ligand 100 ng/ml, MTT daily
Procedure: as §1, §2

[3] = test system: D4 cells (32D expressing ErbB-4); assay: 32D cell proliferation, 24-hour dose-response MTT assay; conditions: 24-hour dose-response, in comparison to NRG-1β control
Procedure: (§3) The indicated derivative lines of 32D cells were tested for cell proliferation using the [3-(4,5-dimethylthiazol-2-yl)-2,5-diphenyl]tetrazolium bromide (MTT) assay. […] The MT assay was performed 24 hours later. Results are presented as percent induction over the control untreated cells, and are the mean±S.D. of 4 determinations. Each experiment was repeated at least twice with similar findings.
(§4) The establishment of a series of interleukin 3 (IL-3)-dependent 32D myeloid cells expressing all combinations of ErbB proteins has been described (Alimandi et al., 1997; Pinkas-Kramarski et al., 1996; Shelly et al., 1998). Cells were maintained in RPMI medium with 10% fetal bovine serum (FBS) and dilute IL3-containing conditioned medium. Prior to proliferation assays, cells were washed three times in RPMI/FBS and plated (5×10^5 cells/ml; 0.1 ml/well) into 96-well flat-bottomed plates with the indicated liconcentrations or with IL-3 (1:1000 dilution of conditioned medium). Cell survival was determined 24 hours later, or after the indicated time intervals, by MTT assay, as previously described (Mosman, 1983). MTT (0.05 mg/ml) was incubated with the analyzed cells for 2 hours at 37 C. Living cells can transform the tetrazolium ring into dark blue formazan crystals, that can be quantified by reading the optical density at 540-630 nm after lysis of the cells with acidic isopropanol.
(§5) To test the prediction that the novel transcript encodes an ErbB-specific ligand, the corresponding full-length EGF-like domain (residues 4-50, FIG. 1a, SEQ ID NO:2) was synthesized, denatured and refolded to allow proper disulfide bridging. This method has been used before to synthesize functionally active derivatives of other EGF-like growth factors (Barbacci et al., 1995; Lin et. al., 1988; Shelly et al., 1998). A series of derivatives of the 32D cell line engineered to express different ErbB receptors or their combinations has been previously described (Pinkas-Kramarski et al., 1996; Shelly et al., 1998). The myeloid 32D parental cells require cytokine stimulation, such as interleukin 3 (IL3) for their growth, and were chosen because they lack endogenous ErbB expression.

D13 cells [4] = assay: as above; conditions: 24-hour dose-response
Procedure: as §3, §4, §5

[5] = test system: D24 cells (32D co-expressing ErbB-4 and ErbB-2); assay: as above
Procedure: as §3, §4, §5

[6] = test system: D12 cells (32D co-expressing ErbB-1 and ErbB-2); assay: as above; conditions: 24-hour dose-response
Procedure: as §3, §4, §5

D23 cells [7] = assay: as above; conditions: 24-hour dose-response
Procedure: as §3, §4, §5

[8] = test system: D2 cells (32D expressing ErbB-2); assay: as above; conditions: 24-hour dose-response, without IL-3
Procedure: as §3, §4, §5

[9] = test system: D1 cells (32D expressing ErbB-1); assay: as above; conditions: 24-hour dose-response, without IL-3
Procedure: as §3, §4, §5

[10] = test system: D3 cells (32D expressing ErbB-3); assay: as above; conditions: 24-hour dose-response
Procedure: as §3, §4, §5

D3 cells = assay: Tyrosine phosphorylation and MAPK activation, immunoblotting; conditions: doses as high as 1 μg/ml
Procedure: (§6) For receptor activation studies, derivatives of the 32D cell line were resuspended in phosphate-buffered solution (PBS) and incubated at 22 C for 15 minutes before adding growth factors and incubating for five minutes at 37 C. Cells were then pelleted and lysed in ice cold solubilization buffer [50 mM Tris-HCl pH 7.5, 150 mM NaCl, 1% Nonidet-P40, 0.5% Na-deoxycholate, 0.1% sodium dodecyl sulfate (SDS), 1.5 mM EDTA, 1.5 mM MgCl2, 2 mM Na-orthovanadate, 1 mM phenylmethylsulfonyl fluoride (PMSF), 10 µg/ml aprotinin and 10 µg/ml leupeptin] and left on ice for 15 minutes. The whole cell extract was then cleared by centrifugation (12,000×g for 10 minutes at 4 C), immediately boiled in reducing gel sample buffer, and resolved by 10% SDS PAGE before being transferred onto nitrocellulose. Filters were blocked in TBST buffer (0.02 M Tris-HCl pH 7.5, 0.15 M NaCl, 0.05% Tween-20) containing 1% milk for 40 minutes at 22 C, blotted with primary antibodies in TBST overnight at 4 C, followed by conjugation with a secondary antibody linked to horseradish peroxidase and subsequent detection by chemiluminescence (Amersham Corp.).
(§7) Evidently, NRG-4 binds to ErbB-4 and mediates cell proliferation through activation of this receptor. Because other ErbB ligands stimulate cell growth via tyrosine phosphorylation of their respective receptors and activation of the intervening mitogen-activated protein kinase (MAPK) cascade, these two signaling steps were tested in NRG-4-responsive myeloid cells expressing ErbB-4 (D4 and D24 cell lines). Cells were stimulated with 100 ng/ml of activating ligand for five minutes, followed by lysis and analysis by immunoblotting.

D13 cells [11] = assay: as above; conditions: doses as high as 1 μg/ml
Procedure: as §6, §7

D2 cells = assay: as above; conditions: doses as high as 1 μg/ml
Procedure: as §6, §7

D23 cells [12] = assay: as above; conditions: doses as high as 1 μg/ml
Procedure: as §6, §7

D1 cells = assay: as above; conditions: doses as high as 1 μg/ml
Procedure: as §6, §7

D12 cells = assay: as above; conditions: doses as high as 1 μg/ml
Procedure: as §6, §7

B1: NRG-4: synthetic refolded mouse EGF-like domain of NRG-4 (residues 4 to 50, SEQ ID NO:2) (peptide, listed as Mus musculus)
chain: MPTDHEQPCGPRHRSFCLNGGICYVIPTIPSPFCRCIENYTGARCEEVFLPSSSIPSESNLSAAFVVLAVLLTLTIAALCFLCRKGHLQRASSVQCEISLVETNNTRTRHSHREH
B1 was tested, and the “survival of D4 cells in the absence of IL-3” value [1] was “stimulated the survival”, the “survival of D24 cells in the absence of IL-3” value [2] was “more robust, and akin to the NRG-1-treated controls” and the “mitogenic response of D4 cells” value [3] was “modest dose-dependent mitogenic response”. For the same molecule, the “mitogenic response of D13 cells” value (D13 cells [4]) was “D24 cells) was the only line that responded mitogenically”, the “mitogenic response of D24 cells” value ([5]; 24-hour dose-response, MTT) was “responded mitogenically” and the “mitogenic potency compared with NRG-1 in D24 cells” value ([5]; cells co-overexpressing ErbB-2 and ErbB-4) was “almost equipotent”. For the same molecule, the “mitogenic response of D12 cells” value [6] was “D24 cells) was the only line that responded mitogenically”, the “mitogenic response of D23 cells” value (D23 cells [7]) was “D24 cells) was the only line that responded mitogenically” and the “mitogenic response of D2 cells” value [8] was “did not respond”. For the same molecule, the “mitogenic response of D1 cells” value [9] was “did not respond”, the “mitogenic response of D3 cells” value [10] was “did not respond” and the “stimulation of D3 cells” value (D3 cells) was “did not stimulate”. The “stimulation of D13 cells” value (D13 cells [11]) was “did not stimulate”, the “stimulation of D2 cells” value (D2 cells) was “did not stimulate” and the “stimulation of D23 cells” value (D23 cells [12]) was “did not stimulate”. For the same molecule, the “stimulation of D1 cells” value (D1 cells) was “did not stimulate” and the “stimulation of D12 cells” value (D12 cells) was “did not stimulate”.
